From patent US20210188951A1 (Merck Sharp & Dohme, published 2021)

B1: RB1+YTE (human IgG1 with M252Y/S254T/T256E in the Fc) (antibody, V domains shown)
VH: EVQLVESGGGLVRPGRSLRLSCTVSGFSFDDSAMSWVRQAPGKGLEWISFIKSKTYGGTKEYAASVKGRFTISRDDSKNIAYLQMNSLKTEDTAVYYCTRGAPYGGNSDYYYGLDVWGQGTTVTVSS
VL: DIQMTQSPSSLSASVGDRVTITCRTSQDVRGALAWYQQKPGKAPKLLIFDASSLETGVPSRFSGSGSGTVFTLTISSLQPEDFAAYYCQQFLDFPFTFGQGTRLEIKR
B2: D25 antibody (antibody, V domains shown)
VH: QVQLVQSGAEVKKPGSSVMVSCQASGGPLRNYIINWLRQAPGQGPEWMGGIIPVLGTVHYAPKFQGRVTITADESTDTAYIHLISLRSEDTAMYYCATETALVVSTTYLPHYFDNWGQGTLVTVSS
VL: DIQMTQSPSSLSAAVGDRVTITCQASQDIVNYLNWYQQKPGKAPKLLIYVASNLETGVPSRFSGSGSGTDFSLTISSLQPEDVATYYCQQYDNLPLTFGGGTKVEIKR
B3: palivizumab (SYNAGIS) (antibody, V domains shown)
VH: QVTLRESGPALVKPTQTLTLTCTFSGFSLSTSGMSVGWIRQPPGKALEWLADIWWDDKKDYNPSLKSRLTISKDTSKNQVVLKVTNMDPADTATYYCARSMITNWYFDVWGAGTTVTVSS
VL: DIQMTQSPSTLSASVGDRVTITCKCQLSVGYMHWYQQKPGKAPKLLIYDTSKLASGVPSRFSGSGSGTEFTLTISSLQPDDFATYYCFQGSGYPFTFGGGTKLEIK
B4: RB1 (recombinant human IgG1, CHO-3E7 expressed) (antibody, V domains shown)
VH: B1 VH
VL: B1 VL
notes: Variable domains converted to human IgG1 and expressed in CHO-3E7 cells; also called RB1 MAb; anti-human RSV F protein antibody RB1

Key:
[1] = biological target: T1, human RSV A F protein (ELISA of Example 6; pre- or post-fusion form not stated) (human RSV A, UniProt P03420 26-513); assay: ELISA on coated F protein; lower end of the range
[2] = biological target: T1, human RSV A F protein (ELISA of Example …); assay: ELISA, RSV A F protein on the plate, antibody titrated, OD450
[3] = biological target: T2, human RSV pre-fusion F protein (human respiratory syncytial virus (hRSV), UniProt P03420 26-513); assay: SPR (Biacore)
T2 construct: also called hRSV pre-F

[4] = biological target: T3, human RSV post-fusion F protein LZF21 (human respiratory syncytial virus (hRSV), UniProt P03420 26-524); assay: SPR (Biacore)
T3 construct: extracellular domain; Trimeric; also called LZF21-biotin

[5] = biological target: human RSV pre-fusion F protein (human respiratory syncytial virus (hRSV), UniProt P03420 26-513); assay: ELISA on coated pre-F
[6] = biological target: human RSV post-fusion F protein LZF21 (human respiratory syncytial virus (hRSV), UniProt P03420 26-524); assay: ELISA on coated post-F
[7] = biological target: T2, human RSV pre-fusion F protein; assay: ELISA on coated pre-F
[8] = biological target: T4, RSV-F protein R429A mutant, expressed in human cells (UniProt P03420 26-574); assay: shotgun mutagenesis alanine scan, antibody binding to F mutant expressed in human cells
T4 construct: whole, on cells

[9] = biological target: T5, RSV-F protein I432A mutant, expressed in human cells (UniProt P03420 26-574); assay: as above
T5 construct: whole, on cells

[10] = biological target: T2, human RSV pre-fusion F protein; assay: SPR, Biacore T200, 1:1 Langmuir fit
Text: (§1) Background subtraction binding sensorgrams were used for analyzing the rate constant of association (kₐ) and dissociation (kd), and the equilibrium dissociation constant KD. The resulting data sets were fitted with a 1:1 Langmuir Binding Model using the Biacore T200 evaluation software (version 2.0).

[11] = biological target: T3, human RSV post-fusion F protein LZF21; assay: SPR, Biacore T200, 1:1 Langmuir fit
Text: as §1

[12] = biological target: T3, human RSV post-fusion F protein LZF21; assay: ELISA on coated post-F

Binder | Kd [3] [nM] | koff [3] [s⁻¹] | kon [3] [M⁻¹ s⁻¹] | Kd [4] [nM] | koff [4] [s⁻¹] | kon [4] [M⁻¹ s⁻¹] | EC50 [5] [ng/mL] | further results
B1 | 0.071 | 0.00023 | 3.2e+06 | 0.48 | 0.0007 | 1.4e+06 | – | EC50 [1]: 1.97 to 2.46 ng/mL; EC50 [2]: 2.24 ng/mL
B2 | – | – | – | – | – | – | 8.94 | –
B3 | – | – | – | – | – | – | 17.4 | EC50 [6]: 10.5 ng/mL
B4 | 0.031 | 0.00014 | 4.4e+06 | 0.41 | 0.0009 | 2.2e+06 | – | EC50 [7]: 7.05 ng/mL; Binding Reactivity (% WT) [8]: 33.1 % WT; Binding Reactivity (% WT) [9]: 36.7 % WT; Kd [10]: 0.031 nM; koff [10]: 0.00014 s⁻¹; kon [10]: 4.4e+06 M⁻¹ s⁻¹; Kd [11]: 0.41 nM; koff [11]: 0.0009 s⁻¹; kon [11]: 2.2e+06 M⁻¹ s⁻¹; EC50 [12]: 14.1 ng/mL
